The target of one test is T1, flag-tagged mouse LAP (mouse).
T1 construct: also called recombinant mouse latency associated protein (LAP); mouse latency associated peptide
T1 chain: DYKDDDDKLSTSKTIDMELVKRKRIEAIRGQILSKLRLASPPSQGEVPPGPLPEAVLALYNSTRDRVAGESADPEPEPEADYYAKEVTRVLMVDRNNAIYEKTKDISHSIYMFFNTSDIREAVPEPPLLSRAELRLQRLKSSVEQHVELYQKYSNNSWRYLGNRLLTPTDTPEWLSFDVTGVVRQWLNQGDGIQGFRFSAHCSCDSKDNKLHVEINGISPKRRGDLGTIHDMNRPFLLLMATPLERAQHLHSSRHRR
As to the kind of experiment: ELISA, plate coated with mouse LAP, anti-human IgG-HRP detection. In general terms: In an ELISA, binding on a coated surface is turned into a signal by an enzyme label.

In the next test the target is T2, mouse mature TGF-beta 1 (mouse, UniProt P04202 279-390).
T2 construct: mature
The experiment in a line: ELISA, plate coated with mouse mature TGF-beta 1, anti-human IgG-HRP detection.

A further test concerns the target T3, human mature TGF-beta 1 (human, UniProt P01137 279-390).
T3 construct: mature
As to the kind of experiment: ELISA, plate coated with human mature TGF-beta 1, anti-human IgG-HRP detection.

Test [1] has as its target T4, flag-tagged human latent TGF-beta 1 (human, UniProt P01137 34-390).
T4 construct: Small latent complex: homodimer of LAP and mature TGF-beta 1 held non-covalently; also called human latent TGF-beta 1 (SLC); hSLC
As to the kind of experiment: SPR Biacore 8k, antibody captured by anti-human kappa, latent TGF-beta 1 (SLC) as analyte, 37 C, 1:1 model.
Experimental: (§1) Mouse anti-human Ig kappa light chain antibody (BD Pharmingen) was immobilized onto all flow cells of a CMS sensor chip using amine coupling kit (GE Healthcare). […] All antibodies and analytes were prepared in ACES pH 7.4 containing 20 mM ACES, 150 mM NaCl, 0.05% Tween 20, 0.005% NaN₃. Assay temperature was set at 37 degrees C. Sensor surface was regenerated each cycle with 10 mM Glycine-HCl, pH2.1. Binding activity was determined by processing and fitting the data to 1:1 binding model using Biacore Insight Software, version 1.1.1.7442 (GE Healthcare).

Test [2] addresses T5, flag-tagged cynomolgus monkey latent TGF-beta 1 (cynomolgus monkey, UniProt P01137 34-390 (human entry), limits assumed).
T5 construct: also called monkey latent TGF-beta 1 (SLC); Cyno latent TGF-beta 1
The test is described as above.
Experimental: as §1

For test [3], the target named is T6, flag-tagged mouse latent TGF-beta 1 (mouse, UniProt P04202 34-390).
T6 construct: also called mouse latent TGF-beta 1 (SLC); mSLC
Described as above.
Experimental: as §1

One may read the Kd as a measure of binding affinity in units of concentration. For orientation: koff means the first-order rate constant of dissociation. For orientation: kon means a measure of how fast the partners come together.

T3 sequence (P01137 279-390 limits assumed): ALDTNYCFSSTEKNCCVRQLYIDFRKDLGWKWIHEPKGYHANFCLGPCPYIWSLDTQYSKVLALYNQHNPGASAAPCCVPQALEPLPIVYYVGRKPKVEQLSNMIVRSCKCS
Experimental for human mature TGF-beta 1: (§2) 384-well plate was coated with mouse or human mature TGF-beta 1 for overnight at 4 degree C., and then washed four times with PBS-T. After washing, the plate was blocked with blocking buffer (1×TBS/Tween-20+0.5% BSA+1× Block ace) for at least 1 hour at room temperature, and then washed four times with PBS-T. After washing, an antibody solution was added to the plate and incubated for 2 hours at room temperature, and then washed four times with PBS-T. After washing, diluted secondary antibody (goat anti-human IgG-HRP, Abcam, Cat. ab98624) was added to the plate and incubated for 1 hour at room temperature, and then washed four times with PBS-T. After washing, TMB solution was added to the plate and incubated for 15 minutes at room temperature, then 1N sulfuric acid was added to stop the reaction. The absorbance (optical density; OD) was measured at 450 nm/570 nm.
Experimental for mouse mature TGF-beta 1: as §2

B1: hT0947AE08-SG191 (antibody, IgG1, V domains shown)
VH: QVQLVESGGGVVQPGRSLRLSCAASGFTFSSYAMNWIRQPPGKGLEWIGYIYTSGTRYRANWARGRFTISRDNSKNTLYLQMNSLRAEDTAVYYCARGTDIYDYYYWVMDLWGPGTLVTVSS
VL: DIQMTQSPSSLSASVGDRVTITCQASQSISTYLAWYQQKPGQPPKLLIYAASTLESGVPSRFSGSGSGTDFTLTISSLQPEDFATYYCQSYSDGDSVGFGQGTKVEIKR
notes: Humanized, optimized IgG1; also called hT0947AE08-5G191
As to B1, the binding result with flag-tagged mouse LAP was “binds”; with mouse mature TGF-beta 1, “no binding (tested: 10 ug/mL)”; in the test with human mature TGF-beta 1 it was “no binding (tested: 10 ug/mL)”. Moreover, the Kd in test [1] is 1.13 nM; in test [2], 1 nM; in test [3] it was 1.1 nM. For the same molecule, the off-rate constant (koff) was 0.00043 s⁻¹ in test [1], 0.000326 s⁻¹ in test [2] and 0.000319 s⁻¹ in test [3]. Besides, the results for the kon in test [1], in test [2] and in test [3] were 381000 M⁻¹ s⁻¹, 325000 M⁻¹ s⁻¹ and 292000 M⁻¹ s⁻¹, respectively.

B2: hT0947AE04-SG191 (antibody, IgG1, V domains shown)
VH: QVQLVESGGGVVQPGRSLRLSCAASGFTFSSYAMNWIRQPPGKGLEWIGYIYTSGTTYHANWARGRFTISRDNSKNTLYLQMNSLRAEDTAVYYCARGTFIWDYYYWVMDLWGPGTLVTVSS
VL: DIQMTQSPSSLSASVGDRVTITCQASQSISTYLAWYQQKPGQPPKLLIYKASTLESGVPSRFSGSGSGTDFTLTISSLQPEDFATYYCQSYSDADSVGFGQGTKVEIKR
notes: Humanized, optimized IgG1
As to B2, the values for the binding result with flag-tagged mouse LAP and with mouse mature TGF-beta 1 were “binds” and “no binding (tested: 10 ug/mL)”, respectively. For the same molecule, the affinity in test [3], expressed as Kd, was 1.89 nM.

B3: hT0947AE09-SG191 (antibody, IgG1, V domains shown)
VH: QVQLVESGGGVVQPGRSLRLSCAASGFTFSSYAMNWIRQPPGKGLEWIGYIYTSGTRYRANWARGRFTISRDNSKNTLYLQMNSLRAEDTAVYYCARGTDIYDYYYWVMDLWGPGTLVTVSS
VL: DIQMTQSPSSLSASVGDRVTITCQASQSISTYLAWYQQKPGQPPKLLIYAASTLESGVPSRFSGSGSGTDFTLTISSLQPEDFATYYCQSYSDADSVGFGQGTKVEIKR
notes: Humanized, optimized IgG1; also called hT0947AE09-5G191; hT0947A09-SG191
Turning to B3, the binding result in the test with flag-tagged mouse LAP is on record as “binds”; in the test with mouse mature TGF-beta 1 it was “no binding (tested: 10 ug/mL)”; with human mature TGF-beta 1 it was “no binding (tested: 10 ug/mL)”. Also, the Kd in test [1] was 2.15 nM; in test [2] it was 2.24 nM; in test [3], 1.6 nM. Moreover, the off-rate (koff) in test [1] was 0.000727 s⁻¹; in test [2], 0.000659 s⁻¹; in test [3], 0.000388 s⁻¹. Further, the values for the kon in test [1], in test [2] and in test [3] were 339000 M⁻¹ s⁻¹, 294000 M⁻¹ s⁻¹ and 243000 M⁻¹ s⁻¹, respectively.

These data come from patent US20210395356A1 (Chugai, published 2021).
